Data as given in article PMC8476643 (Nature Communications, 2021).

B1: 6D6 monoclonal antibody (antibody, V domains shown)
VH: EVQLQQSGAELVKPGASVKLSCTTSGFNIIDTYMHWVKQRPEEGLEWIGGIDPVNGNSEYDPKFQDKATITADTSSNTAYLHLSRLTSEDTAVYYCASAHYYGSSSSFPYWGQGTLVTVSA
VL: DIVMTQSQKFMSTSVGDRVSVTCKASQNVGTHVAWYQQKPGQSPKALIYSASYRYSGVPDRFTGSGVGTDFTLTITNVQSEDLAEYFCQQYNSYFTFGSGTKLEIK
notes: also called mAb 6D6; source: mouse hybridoma, ascites, purified (protein A agarose); copies: 2 + 2
B2: 7D6 monoclonal antibody (antibody, V domains shown)
VH: EVQLQQSGAELVRPGASVKLSCTASGFNIKDTYIHWVKQRPEQGLEWIGRIDPGDGDTEYDPSFQGKATITADTSSNTAYLELSSLTSEDTAVYYCTRFYDYVDYGMDYWGQGTSVTVSS
VL: DIQMTQSPASLSASVGETVTITCRASGNIHNYLAWYQQKQGKSPQLLVYNAKTLADGVPSRFSGSGSGTQYSLKINSLQPEDFGSYYCQHFWSTPPWTFGGGTKLEVK
notes: also called mAb 7D6; source: mouse hybridoma, ascites, purified (protein A agarose); copies: 2 + 2

Columns and labels:
[1] = molecular target: T1, SARS-CoV two-proline stabilized S trimer (S-2P) (SARS-CoV (GenBank NC_004718.3), UniProt P59594, stabilised); test: SPR; details: both partners purified
T1 construct: also called SARS-CoV S-2P

[2] = molecular target: T1, SARS-CoV two-proline stabilized S …; test: SPR; details: both partners purified; remark: listed apart in the source

Binder	Kd [1]	koff [1]	kon [1]	Kd [2]
B1	2.14 nM	5.56e-05 s⁻¹	30600 M⁻¹ s⁻¹	
B2	5.04 nM	0.000241 s⁻¹	47800 M⁻¹ s⁻¹	5.88 nM
